In paper PMC6450946:
One block for each molecule: values may come before it.

Assays:
[1] = molecular target: SRM-HtrM fusion protein (H. marismortui SRM and HtrM joined by a flexible linker) expressed in H. salinarum (Haloarcula marismortui); experiment: SDS-PAGE and Western blot; lysate of transformed H. salinarum (cells lysed in distilled water, sonicated); detection with Penta-His HRP conjugate
[2] = molecular target: HtrI, cognate transducer of SRI from Haloarcula marismortui, as part of the HmSRI-HtrI fusion protein (Haloarcula marismortui)
[3] = molecular target: HtrM, cognate transducer of SRM from Haloarcula marismortui, as the C-terminal part of the SRM-HtrM fusion protein (Haloarcula marismortui)

stoichiometry N [1]: 2
Molecule: SRM-HtrM fusion protein (H. marismortui SRM and HtrM joined by a flexible linker) expressed in H. salinarum

Photocycle kinetics (Tau value) of detergent-solubilized HmSRI-HtrI fusion, acidic (pH 6.1-6.5) [2]: 2.38 s | Photocycle kinetics (Tau value) of detergent-solubilized HmSRI-HtrI fusion, alkaline (pH 7.6-7.9) [2]: 4.49 s
B1: Sensory rhodopsin I from Haloarcula marismortui, as part of the HmSRI-HtrI fusion protein (receptor)
chain: MDAVSVVYGITAAGFAVGVAIVGFLYASLEGSDERPILAALALIPGVAGISYVAMVFGIGTVTIGETTLVGFRYLDWVVTTPLLVGFIGYTAGASRRAIFGVMAADALMILAGVGAVVAAGTLKWALFGVSAVFHISLFAYLYLIFPRSVPDDPQRIGLFSLLKNHVGLLWIAYPLVWLAGPEGLGFATYVGVSITYAFLDLLAKVPYVYFFYARRQVFATKLLRDSGDTTVTPAD

Photocycle kinetics (Tau value) of detergent-solubilized HmSRM-HtrM fusion, acidic (pH 6.1-6.5) [3]: 4.05 s | Photocycle kinetics (Tau value) of detergent-solubilized HmSRM-HtrM fusion, alkaline (pH 7.6-7.9) [3]: 5.62 s
B2: Sensory rhodopsin SRM from Haloarcula marismortui, as the N-terminal part of the SRM-HtrM fusion protein (receptor)
chain: MAQEIVWYGAGAGAFFVSAVVFVWFAATRGNIRSSFYYLPPIHTSVAGAAYVAMALIAGGQLGDTVSITTLRFADWIVSTPIITYYLARLAGVDTQTRRLAVAANVVMIGVGYGFVSMSGSLRWIAFAVSTVAFIGLLYLYIKTFARKINAATASVRSLFQSLRDLTVVTWSLYPVVYFLGPLGTGIIQAPDLNFLVAVLDTIAKVGFMSILLVRYNSVETFVDSWSVAPAK
